# Legend:
# HeLa Kyoto [1] = assay: solubility in G1/S (NP-40 vs SDS abundance) (log2 ratio); higher = more soluble; details: cell cycle stage: G1/S
# HeLa Kyoto [2] = assay: solubility change mitosis vs G1/S (difference of NP-40 vs SDS log2 ratios) (log2 ratio difference); higher = more soluble in mitosis
# HeLa Kyoto [3] = assay: melting temperature (median over replicates), in situ; higher = more thermally stable
# HeLa Kyoto [4] = assay: thermal stability score vs G1/S (z-score of summed log2 fold changes over temperatures); higher = more thermally stable than in G1/S
# [5] = cell cycle stage: early G1 (4.5 h after nocodazole release)
# 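Throughout, for melting temperature (median over replicates), in situ: HeLa Kyoto cells synchronized by double thymidine or nocodazole block, proteins quantified by TMT10plex mass spectrometry, three independent biological replicates.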
# 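Throughout, for solubility change mitosis vs G1/S (difference of NP-40 vs SDS log2 ratios): synchronized HeLa Kyoto cells (double thymidine block for G1/S, nocodazole release for mitosis), protein amounts in NP-40 versus SDS lysates quantified by mass spectrometry, three biological replicates.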
# 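Throughout, for solubility in G1/S (NP-40 vs SDS abundance): HeLa Kyoto cells arrested at G1/S by double thymidine block, proteins quantified by TMT10plex mass spectrometry in mild NP-40 versus SDS extracts, three biological replicates.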
# 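Throughout, for thermal stability score vs G1/S (z-score of summed log2 fold changes over temperatures): synchronized HeLa Kyoto cells, proteins quantified by TMT10plex mass spectrometry, three biological replicates, mitosis taken 0.5 h after nocodazole release, G1/S directly after double thymidine block.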
Sequence,solubility in G1/S (log2) (HeLa Kyoto [1]),solubility change mitosis (log2) (HeLa Kyoto [2]),melting temperature (HeLa Kyoto [3]; cell cycle stage: G1/S) [°C],melting temperature (HeLa Kyoto [3]; cell cycle stage: mitosis) [°C],thermal stability score (HeLa Kyoto [4]; [5]),thermal stability score (HeLa Kyoto [4]; cell cycle stage: mitosis)
MAAEQDPEARAAARPLLTDLYQATMALGYWRAGRARDAAEFELFFRRCPFGGAFALAAGLRDCVRFLRAFRLRDADVQFLASVLPPDTDPAFFEHLRALDCSEVTVRALPEGSLAFPGVPLLQVSGPLLVVQLLETPLLCLVSYASLVATNAARLRLIAGPEKRLLEMGLRRAQGPDGGLTASTYSYLGGFDSSSNVLAGQLRGVPVAGTLAHSFVTSFSGSEVPPDPMLAPAAGEGPGVDLAAKAQVWLEQVCAHLGLGVQEPHPGERAAFVAYALAFPRAFQGLLDTYSVWRSGLPNFLAVALALGELGYRAVGVRLDSGDLLQQAQEIRKVFRAAAAQFQVPWLESVLIVVSNNIDEEALARLAQEGSEVNVIGIGTSVVTCPQQPSLGGVYKLVAVGGQPRMKLTEDPEKQTLPGSKAAFRLLGSDGSPLMDMLQLAEEPVPQAGQELRVWPPGAQEPCTVRPAQVEPLLRLCLQQGQLCEPLPSLAESRALAQLSLSRLSPEHRRLRSPAQYQVVLSERLQALVNSLCAGQSP [NAPRT],0.352,-0.0823,56.9,56.7,0.14,-1.8
MVAACRSVAGLLPRRRRCFPARAPLLRVALCLLCWTPAAVRAVPELGLWLETVNDKSGPLIFRKTMFNSTDIKLSVKSFHCSGPVKFTIVWHLKYHTCHNEHSNLEELFQKHKLSVDEDFCHYLKNDNCWTTKNENLDCNSDSQVFPSLNNKELINIRNVSNQERSMDVVARTQKDGFHIFIVSIKTENTDASWNLNVSLSMIGPHGYISASDWPLMIFYMVMCIVYILYGILWLTWSACYWKDILRIQFWIAAVIFLGMLEKAVFYSEYQNISNTGLSTQGLLIFAELISAIKRTLARLLVIIVSLGYGIVKPRLGTVMHRVIGLGLLYLIFAAVEGVMRVIGGSNHLAVVLDDIILAVIDSIFVWFIFISLAQTMKTLRLRKNTVKFSLYRHFKNTLIFAVLASIVFMGWTTKTFRIAKCQSDWMERWVDDAFWSFLFSLILIVIMFLWRPSANNQRYAFMPLIDDSDDEIEEFMVTSENLTEGIKLRASKSVSNGTAKPATSENFDEDLKWVEENIPSSFTDVALPVLVDSDEEIMTRSEMAEKMFSSEKIM [TMEM87B],-0.12,-0.177,55.1,54.9,-3.16,-3.29
MSQQGYVATPPYSQPQPGIGLSPPHYGHYGDPSHTASPTGMMKPAGPLGATATRGMLPPGPPPPGPHQFGQNGAHATGHPPQRFPGPPPVNNVASSHAPYQPSAQSSYPGPISTSSVTQLGSQLSAMQINSYGSGMAPPSQGPPGPLSATSLQTPPRPPQPSILQPGSQVLPPPPTTLNGPGASPLPLPMYRPDGLSGPPPPNAQYQPPPLPGQTLGAGYPPQQANSGPQMAGAQLSYPGGFPGGPAQMAGPPQPQKKLDPDSIPSPIQVIENDRASRGGQVYATNTRGQIPPLVTTDCMIQDQGNASPRFIRCTTYCFPCTSDMAKQAQIPLAAVIKPFATIPSNESPLYLVNHGESGPVRCNRCKAYMCPFMQFIEGGRRYQCGFCNCVNDVPPFYFQHLDHIGRRLDHYEKPELSLGSYEYVATLDYCRKSKPPNPPAFIFMIDVSYSNIKNGLVKLICEELKTMLEKIPKEEQEETSAIRVGFITYNKVLHFFNVKSNLAQPQMMVVTDVGEVFVPLLDGFLVNYQESQSVIHNLLDQIPDMFADSNENETVFAPVIQAGMEALKAADCPGKLFIFHSSLPTAEAPGKLKNRDDKKLVNTDKEKILFQPQTNVYDSLAKDCVAHGCSVTLFLFPSQYVDVASLGLVPQLTGGTLYKYNNFQMHLDRQQFLNDLRNDIEKKIGFDAIMRVRTSTGFRATDFFGGILMNNTTDVEMAAIDCDKAVTVEFKHDDKLSEDSGALIQCAVLYTTISGQRRLRIHNLGLNCSSQLADLYKSCETDALINFFAKSAFKAVLHQPLKVIREILVNQTAHMLACYRKNCASPSAASQLILPDSMKVLPVYMNCLLKNCVLLSRPEISTDERAYQRQLVMTMGVADSQLFFYPQLLPIHTLDVKSTMLPAAVRCSESRLSEEGIFLLANGLHMFLWLGVSSPPELIQGIFNVPSFAHINTDMTLLPEVGNPYSQQLRMIMGIIQQKRPYSMKLTIVKQREQPEMVFRQFLVEDKGLYGGSSYVDFLCCVHKEICQLLN [SEC24D],0.11,-0.132,50.8,50.9,0.419,0.688
MFVARSIAADHKDLIHDVSFDFHGRRMATCSSDQSVKVWDKSESGDWHCTASWKTHSGSVWRVTWAHPEFGQVLASCSFDRTAAVWEEIVGESNDKLRGQSHWVKRTTLVDSRTSVTDVKFAPKHMGLMLATCSADGIVRIYEAPDVMNLSQWSLQHEISCKLSCSCISWNPSSSRAHSPMIAVGSDDSSPNAMAKVQIFEYNENTRKYAKAETLMTVTDPVHDIAFAPNLGRSFHILAIATKDVRIFTLKPVRKELTSSGGPTKFEIHIVAQFDNHNSQVWRVSWNITGTVLASSGDDGCVRLWKANYMDNWKCTGILKGNGSPVNGSSQQGTSNPSLGSTIPSLQNSLNGSSAGRKHS [SEH1L],-0.79,0.295,54.8,51.6,-3.19,-4.18
MEEMSGESVVSSAVPAAATRTTSFKGTSPSSKYVKLNVGGALYYTTMQTLTKQDTMLKAMFSGRMEVLTDSEGWILIDRCGKHFGTILNYLRDGAVPLPESRREIEELLAEAKYYLVQGLVEECQAALQNKDTYEPFCKVPVITSSKEEQKLIATSNKPAVKLLYNRSNNKYSYTSNSDDNMLKNIELFDKLSLRFNGRVLFIKDVIGDEICCWSFYGQGRKIAEVCCTSIVYATEKKQTKVEFPEARIYEETLNILLYEAQDGRGPDNALLEATGGAAGRSHHLDEDEERERIERVRRIHIKRPDDRAHLHQ [KCTD10],-1.29,0.647,–,51.6,0.937,1.24
MKQDASRNAAYTVDCEDYVHVVEFNPFENGDSGNLIAYGGNNYVVIGTCTFQEEEADVEGIQYKTLRTFHHGVRVDGIAWSPETRLDSLPPVIKFCTSAADMKIRLFTSDLQDKNEYKVLEGHTDFINGLVFDPKEGQEIASVSDDHTCRIWNLEGVQTAHFVLHSPGMSVCWHPEETFKLMVAEKNGTIRFYDLLAQQAILSLESEQVPLMSAHWCLKNTFKVGAVAGNDWLIWDITRSSYPQNKRPVHMDRACLFRWSTISENLFATTGYPGKMASQFQIHHLGHPQPILMGSVAVGSGLSWHRTLPLCVIGGDHKLLFWVTEV [NUP37],-0.294,0.135,53.3,51,-3.41,-4.8
MTSAAPAKKPYRKAPPEHRELRLEIPGSRLEQEEPLTDAERMKLLQEENEELRRRLASATRRTEALERELEIGQDCLELELGQSREELDKFKDKFRRLQNSYTASQRTNQELEDKLHTLASLSHSWIFAIKKAEMDRKTLDWEIVELTNKLLDAKNTINKLEELNERYRLDCNLAVQLLKCNKSHFRNHKFADLPCELQDMVRKHLHSGQEAASPGPAPSLAPGAVVPTSVIARVLEKPESLLLNSAQSGSAGRPLAEDVFVHVDMSEGVPGDPASPPAPGSPTPQPNGECHSLGTARGSPEEELPLPAFEKLNPYPTPSPPHPLYPGRRVIEFSEDKVRIPRNSPLPNCTYATRQAISLSLVEEGSERARPSPVPSTPASAQASPHHQPSPAPLTLSAPASSASSEEDLLVSWQRAFVDRTPPPAAVAQRTAFGRDALPELQRHFAHSPADRDEVVQAPSARPEESELLLPTEPDSGFPREEEELNLPISPEEERQSLLPINRGTEEGPGTSHTEGRAWPLPSSSRPQRSPKRMGVHHLHRKDSLTQAQEQGNLLN [TJAP1],0.288,-0.036,51.1,51.7,1.77,3.57
MSAQAQMRAMLDQLMGTSRDGDTTRQRIKFSDDRVCKSHLLNCCPHDVLSGTRMDLGECLKVHDLALRADYEIASKEQDFFFELDAMDHLQSFIADCDRRTEVAKKRLAETQEEISAEVAAKAERVHELNEEIGKLLAKVEQLGAEGNVEESQKVMDEVEKARAKKREAEEVYRNSMPASSFQQQKLRVCEVCSAYLGLHDNDRRLADHFGGKLHLGFIEIREKLEELKRVVAEKQEKRNQERLKRREEREREEREKLRRSRSHSKNPKRSRSREHRRHRSRSMSRERKRRTRSKSREKRHRHRSRSSSRSRSRSHQRSRHSSRDRSRERSKRRSSKERFRDQDLASCDRDRSSRDRSPRDRDRKDKKRSYESANGRSEDRRSSEEREAGEI [LUC7L2],-0.803,0.251,48.6,50.7,2.1,3.71
MFKVIQRSVGPASLSLLTFKVYAAPKKDSPPKNSVKVDELSLYSVPEGQSKYVEEARSQLEESISQLRHYCEPYTTWCQETYSQTKPKMQSLVQWGLDSYDYLQNAPPGFFPRLGVIGFAGLIGLLLARGSKIKKLVYPPGFMGLAASLYYPQQAIVFAQVSGERLYDWGLRGYIVIEDLWKENFQKPGNVKNSPGTK [APOO],0.444,0.185,54.8,56,-1.86,-2.5
MASASTSKYNSHSLENESIKRTSRDGVNRDLTEAVPRLPGETLITDKEVIYICPFNGPIKGRVYITNYRLYLRSLETDSSLILDVPLGVISRIEKMGGATSRGENSYGLDITCKDMRNLRFALKQEGHSRRDMFEILTRYAFPLAHSLPLFAFLNEEKFNVDGWTVYNPVEEYRRQGLPNHHWRITFINKCYELCDTYPALLVVPYRASDDDLRRVATFRSRNRIPVLSWIHPENKTVIVRCSQPLVGMSGKRNKDDEKYLDVIRETNKQISKLTIYDARPSVNAVANKATGGGYESDDAYHNAELFFLDIHNIHVMRESLKKVKDIVYPNVEESHWLSSLESTHWLEHIKLVLTGAIQVADKVSSGKSSVLVHCSDGWDRTAQLTSLAMLMLDSFYRSIEGFEILVQKEWISFGHKFASRIGHGDKNHTDADRSPIFLQFIDCVWQMSKQFPTAFEFNEQFLIIILDHLYSCRFGTFLFNCESARERQKVTERTVSLWSLINSNKEKFKNPFYTKEINRVLYPVASMRHLELWVNYYIRWNPRIKQQQPNPVEQRYMELLALRDEYIKRLEELQLANSAKLSDPPTSPSSPSQMMPHVQTHF [MTM1],-0.0766,0.0496,55.2,54,-1.72,-2.37
MVSKALLRLVSAVNRRRMKLLLGIALLAYVASVWGNFVNMRSIQENGELKIESKIEEMVEPLREKIRDLEKSFTQKYPPVKFLSEKDRKRILITGGAGFVGSHLTDKLMMDGHEVTVVDNFFTGRKRNVEHWIGHENFELINHDVVEPLYIEVDQIYHLASPASPPNYMYNPIKTLKTNTIGTLNMLGLAKRVGARLLLASTSEVYGDPEVHPQSEDYWGHVNPIGPRACYDEGKRVAETMCYAYMKQEGVEVRVARIFNTFGPRMHMNDGRVVSNFILQALQGEPLTVYGSGSQTRAFQYVSDLVNGLVALMNSNVSSPVNLGNPEEHTILEFAQLIKNLVGSGSEIQFLSEAQDDPQKRKPDIKKAKLMLGWEPVVPLEEGLNKAIHYFRKELEYQANNQYIPKPKPARIKKGRTRHS [UXS1],0.264,-0.193,54.6,54.7,0.535,-0.237
MPELAVQKVVVHPLVLLSVVDHFNRIGKVGNQKRVVGVLLGSWQKKVLDVSNSFAVPFDEDDKDDSVWFLDHDYLENMYGMFKKVNARERIVGWYHTGPKLHKNDIAINELMKRYCPNSVLVIIDVKPKDLGLPTEAYISVEEVHDDGTPTSKTFEHVTSEIGAEEAEEVGVEHLLRDIKDTTVGTLSQRITNQVHGLKGLNSKLLDIRSYLEKVATGKLPINHQIIYQLQDVFNLLPDVSLQEFVKAFYLKTNDQMVVVYLASLIRSVVALHNLINNKIANRDAEKKEGQEKEESKKDRKEDKEKDKDKEKSDVKKEEKKEKK [PSMD7],0.121,0.00337,53.9,51.6,-0.335,-1.17

# From the supplement of paper PMC5998384
